The values below come from the supplement of paper PMC12764529.

Series [1] can be described thus: folding stability dG unfold from trypsin proteolysis; higher = more stable. The method, boiled down:
(§1)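 Unfolding free energy was derived, per protease or combined, against a sequence-predicted unfolded-state K50 and a shared folded-state K50, starting from K50 inferred by Bayesian fitting of sequencing counts. Digestion with trypsin and chymotrypsin was carried out on designed mini-proteins under 80 residues without cysteine in a PA-tagged cDNA display construct. Only designs with AlphaFold2 dimer inter-PAE above 15 were kept.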

Series [2] in a line: folding stability dG unfold from chymotrypsin proteolysis; higher = more stable. The method, boiled down: as §1
The nature of series [3]: folding stability dG unfold (combined trypsin and chymotrypsin); higher = more stable. The method, boiled down:
as §1

± gives the half width of the 95% confidence interval.

In the case of “SAGGSAGGSAGGEPEVEITIEVEERDGELVVRVTARFKDTDETITVEMTLEEVEALLKASAGGSAGGSAGGS [r10_1187_TrROS_Hall]”, the “folding stability dG unfold” value in series [1] worked out at 2.54 ± 0.061 kcal/mol; in series [2], 2.17 ± 0.061 kcal/mol; in series [3], 2.37 ± 0.077 kcal/mol.
The matching figures for “SAGGSAGGSAGGERVLVMVFKFDPEDNDMKIKDVVTFPNPEEAREEAEKDGYMVMVIPLSAGGSAGGSAGGS [r10_657_TrROS]”: 0.995 ± 0.048 kcal/mol, 1.85 ± 0.12 kcal/mol and 1.47 ± 0.2 kcal/mol.
Taken in the same sequence, the figures for “SAGGSAGGSAGGETVTIVDKKTNKTITYNKETNEFTITTKNGKKKTIKVDSPEEALKALSAGGSAGGSAGGS [r10_849_TrROS_Hall]” were 0.964 ± 0.02 kcal/mol, 0.731 ± 0.1 kcal/mol and 0.89 ± 0.12 kcal/mol.
The matching figures for “SAGGSAGGSAGGEVKILRVEEFEDGVVRVFVEGDDPVLVIELGPDGVILSIEEVDSSELSAGGSAGGSAGGS [r10_211_TrMRF]”: 1.04 ± 0.044 kcal/mol, 0.562 ± 0.034 kcal/mol and 0.781 ± 0.085 kcal/mol.
As to “SAGGSAGGSAGGEVVVVPLPDGSYVVALPDGTVVVYNPETGRWEERRSEDVVIAPGRPDESAGGSAGGSAGG [r7_656_TrMRF]”, the “folding stability dG unfold” value came to 2.09 ± 0.061 kcal/mol in series [1], 2.51 ± 0.031 kcal/mol in series [2] and 2.4 ± 0.03 kcal/mol in series [3].
Taken in the same sequence, the figures for “SAGGSAGGSAGGEYEIVKIEKVKNENGELYYKMIIKDKKTNKEIEIYMSLEELKKLKPKSAGGSAGGSAGGS [r10_326_TrROS_Hall]” were 2.05 ± 0.047 kcal/mol, 3.85 ± 0.16 kcal/mol and 3.24 ± 0.18 kcal/mol.
“SAGGSAGGSAGGFIARIEYPDGNTRTINPGMSLDELRNLPPDQIRRVEVEPVPPVPDDEKSAGGSAGGSAGG [r7_190_TrROS]”: the “folding stability dG unfold” value in series [1] is -0.225 ± 0.12 kcal/mol; in series [2] it was 0.723 ± 0.023 kcal/mol; in series [3], 0.499 ± 0.079 kcal/mol.
Taken in the same sequence, the figures for “SAGGSAGGSAGGFNIKLDVEIDPENYVIKNKLEVRDGGEERRFEMWIPIRVPPADPDDPSAGGSAGGSAGGS [r10_1049_TrROS]” were -0.135 ± 0.29 kcal/mol, 1.39 ± 0.27 kcal/mol and 0.852 ± 0.21 kcal/mol.
With “SAGGSAGGSAGGFYDPNGKWRIKIKPEVFEFPNYRFIKMKIEVDGRPIMEMPMLIPPNDSAGGSAGGSAGGS [r10_628_TrROS]”, the “folding stability dG unfold” value was determined as 3.41 ± 0.31 kcal/mol in series [1], 2.45 ± 0.16 kcal/mol in series [2] and 2.73 ± 0.34 kcal/mol in series [3].
Consider “SAGGSAGGSAGGGELKYRTLTVDLPVDDPDGRKLPRRLVITFPASNPELAEAFLKALGYSAGGSAGGSAGGS [r10_1062_TrMRF]”, for which the “folding stability dG unfold” value in series [1] turned out to be 1.11 ± 0.012 kcal/mol; in series [2], 1.75 ± 0.021 kcal/mol; in series [3], 1.52 ± 0.034 kcal/mol.
In the case of “SAGGSAGGSAGGGFYVKEIKGVKFGDKTLYIIRVYDDKGNEVFDVVAPPEVLKNLPPEVLSAGGSAGGSAGG [r7_263_TrMRF]”, the “folding stability dG unfold” value turned out to be 1.04 ± 0.015 kcal/mol in series [1], 1.79 ± 0.037 kcal/mol in series [2] and 1.52 ± 0.045 kcal/mol in series [3].
Taken in the same sequence, the figures for “SAGGSAGGSAGGGKVTAVVTFTGPDGSKVVLAFHPDGSVTVRYFDPNGELVGEKTFAGAGSAGGSAGGSAGG [r7_544_TrMRF]” were 3.2 ± 0.19 kcal/mol, 4.56 ± 0.1 kcal/mol and 4.27 ± 0.14 kcal/mol.
Taken in the same sequence, the figures for “SAGGSAGGSAGGGLASEPVEIVEILSVTLVPEANVEVVTVKLPNPGELVTVPASAVPPGLSAGGSAGGSAGG [r7_304_JUSTAS]” were 2.07 ± 0.13 kcal/mol, 1.16 ± 0.048 kcal/mol and 1.69 ± 0.085 kcal/mol.
Taken in the same sequence, the figures for “SAGGSAGGSAGGGMPSVTVTPVTLTVPTEVLVDGGPLLREREVRLTVITYPYTNTVVVDSAGGSAGGSAGGS [r10_533_JUSTAS]” were -0.474 ± 0.2 kcal/mol, 0.494 ± 0.16 kcal/mol and 0.23 ± 0.099 kcal/mol.
As to “SAGGSAGGSAGGGMRTVTTVSSFTFEKNGGEKFVTTTVVVPLYVPPRVFPPPENIELLLLSAGGSAGGSAGG [r17_454_JUSTAS]”, the “folding stability dG unfold” value in series [1] was found to be 2.45 ± 0.33 kcal/mol; in series [2], 1.36 ± 0.27 kcal/mol; in series [3] it was 1.61 ± 0.26 kcal/mol.
On to “SAGGSAGGSAGGGMSIEEVKAKIEEEVGVEVSIEKVSGNTYKITLPKNNETYTIKIPKKSAGGSAGGSAGGS [r10_1032_JUSTAS]”, for which the “folding stability dG unfold” value in series [1] is 0.396 ± 0.062 kcal/mol; in series [2] it was -0.126 ± 0.3 kcal/mol; in series [3] it was 0.373 ± 0.25 kcal/mol.
The matching figures for “SAGGSAGGSAGGGMTTTTETTTTTFPTNNLTTTTTTTTTLETSTGTTLSSTSTTTVTASSAGGSAGGSAGGS [r10_469_JUSTAS]”: 1.96 ± 0.18 kcal/mol, 0.234 ± 0.12 kcal/mol and 1.2 ± 0.072 kcal/mol.
The matching figures for “SAGGSAGGSAGGGMVLKTEPVVITSTSTAPTEDGKWITTTSTLVVTKELILPSTLPGLLSAGGSAGGSAGGS [r10_1133_JUSTAS]”: 0.173 ± 0.028 kcal/mol, 0.276 ± 0.11 kcal/mol and 0.34 ± 0.096 kcal/mol.
The matching figures for “SAGGSAGGSAGGGNMTITVMIPIEIPVFKYDGGKPEFEPFPIYIMVEVTVPEGAPLEEFSAGGSAGGSAGGS [r10_633_TrROS]”: 2.1 ± 0.076 kcal/mol, 1.49 ± 0.027 kcal/mol and 1.79 ± 0.068 kcal/mol.
As to “SAGGSAGGSAGGGNPFLVRTEFFTLPDNTVIRRLAVVHSDGSLSVFPSLLPVPPNSLKLSAGGSAGGSAGGS [r10_280_TrMRF]”, the “folding stability dG unfold” value in series [1] is 0.412 ± 0.041 kcal/mol; in series [2] it was 1.18 ± 0.087 kcal/mol; in series [3], 0.914 ± 0.053 kcal/mol.
Taken in the same sequence, the figures for “SAGGSAGGSAGGGRRLVLVKVPPDVPEEVIREFARRLVEEGVPEPVVVERLEDDYALVLVSAGGSAGGSAGG [r7_283_TrMRF]” were 0.861 ± 0.21 kcal/mol, 1.23 ± 0.24 kcal/mol and 1.01 ± 0.17 kcal/mol.
The matching figures for “SAGGSAGGSAGGGRTYTFTLPDGTVLTVTADDMTEEEIRAKLEAEGGEIVEITVEPGLSSAGGSAGGSAGGS [r10_572_JUSTAS]”: 2.43 ± 0.034 kcal/mol, 2.991 ± 0.018 kcal/mol and 2.86 ± 0.07 kcal/mol.
For the sequence “SAGGSAGGSAGGGSIVIENPEKGLTLTYDPATGNVTITFPGGERKVSPVGSIEKAKELLSAGGSAGGSAGGS [r10_849_JUSTAS]”, the “folding stability dG unfold” value is 0.787 ± 0.059 kcal/mol in series [1], 1.15 ± 0.028 kcal/mol in series [2] and 1.02 ± 0.06 kcal/mol in series [3].
Turning to “SAGGSAGGSAGGGSMPLLTETRKSLVVDPETGRLREVTTTTIRFPDRNTSQVTTTVTPVSSAGGSAGGSAGG [r7_196_JUSTAS]”, the “folding stability dG unfold” value in series [1] worked out at 0.771 ± 0.063 kcal/mol; in series [2], 0.139 ± 0.081 kcal/mol; in series [3] it was 0.41 ± 0.14 kcal/mol.
The matching figures for “SAGGSAGGSAGGGSMPVKEEVIVEVDPTEVPVTLVTTTVVKTYPDGSVEETVTVEVKLVSAGGSAGGSAGGS [r10_598_JUSTAS]”: 0.818 ± 0.085 kcal/mol, 0.281 ± 0.059 kcal/mol and 0.777 ± 0.18 kcal/mol.
Taken in the same sequence, the figures for “SAGGSAGGSAGGGSVSGSTPLTLPDSPVTRYSYPDSLVTFVPEKGVVITVSGSSTTVALSAGGSAGGSAGGS [r10_559_JUSTAS]” were 0.825 ± 0.03 kcal/mol, 0.44 ± 0.077 kcal/mol and 0.654 ± 0.11 kcal/mol.
Taken in the same sequence, the figures for “SAGGSAGGSAGGGSVTLKRPGGSEVTLPDVTADSTITTLPDGTTVVTIPGTGKTYVVPSSAGGSAGGSAGGS [r10_1035_JUSTAS]” were 0.604 ± 0.03 kcal/mol, 0.111 ± 0.2 kcal/mol and 0.495 ± 0.093 kcal/mol.
Consider “SAGGSAGGSAGGGWIYMVTIEPKEVKRSPDPGGKGRPTFEFEMDITIIWIRVDPEDLDDSAGGSAGGSAGGS [r10_654_TrROS]”, for which the “folding stability dG unfold” value was 2.85 ± 0.13 kcal/mol in series [1], 4.14 ± 0.073 kcal/mol in series [2] and 3.76 ± 0.15 kcal/mol in series [3].
“SAGGSAGGSAGGGYTLVTVTLRSPTPTEEVVEEKYPPSVPLEEVKAKYEPLGWEVSFDLLSAGGSAGGSAGG [r7_226_JUSTAS]”: the results for the “folding stability dG unfold” value in series [1], in series [2] and in series [3] were 0.936 ± 0.025 kcal/mol, 0.422 ± 0.13 kcal/mol and 0.832 ± 0.061 kcal/mol, respectively.
On to “SAGGSAGGSAGGHKIDIEWERYEDGMYRVTITIRSNNGPRKIPFWVPPGYETADDILKQISAGGSAGGSAGG [r7_75_TrROS]”, for which the figures for the “folding stability dG unfold” value in series [1], in series [2] and in series [3] were 1.8 ± 0.075 kcal/mol, 1.71 ± 0.066 kcal/mol and 1.88 ± 0.18 kcal/mol, respectively.
Consider “SAGGSAGGSAGGIDFPEKGFVVVVTFPDGSKAEFEVPSDRPLVLNETAGDVTVDEIREKDSAGGSAGGSAGG [r7_542_TrMRF]”, for which the “folding stability dG unfold” value in series [1] was 0.955 ± 0.14 kcal/mol; in series [2] it was -0.125 ± 0.18 kcal/mol; in series [3] it was 0.458 ± 0.13 kcal/mol.
Taken in the same sequence, the figures for “SAGGSAGGSAGGIEIRGPNGAELKIESDPDWGMVSIEMPGNRQEIQIPIPLPKPDPEDKNSAGGSAGGSAGG [r7_383_TrROS]” were 0.838 ± 0.038 kcal/mol, 0.22 ± 0.031 kcal/mol and 0.568 ± 0.072 kcal/mol.
The matching figures for “SAGGSAGGSAGGIHIPAYEAIDFAKENADNGEPVPIEVHNPGNGKPEEREITPDDLDKISAGGSAGGSAGGS [r10_779_TrROS]”: 0.402 ± 0.039 kcal/mol, 0.428 ± 0.016 kcal/mol and 0.454 ± 0.06 kcal/mol.
In the case of “SAGGSAGGSAGGIKIERDPNYWVIEIEIPIYMPQPDPDGEIKEPKPIAPITITILIPPGGSAGGSAGGSAGG [r7_3_TrROS]”, the “folding stability dG unfold” value amounted to 2.09 ± 0.17 kcal/mol in series [1], 2.22 ± 0.11 kcal/mol in series [2] and 2.21 ± 0.2 kcal/mol in series [3].
On to “SAGGSAGGSAGGIPPDVKVKPVATVNLTAEVEVTVLGPEGGPTFTVKVEVKVVFAESTDSAGGSAGGSAGGS [r10_758_TrMRF]”, for which the figures for the “folding stability dG unfold” value in series [1], in series [2] and in series [3] were 1.51 ± 0.37 kcal/mol, 2.57 ± 0.24 kcal/mol and 2.11 ± 0.26 kcal/mol, respectively.
Taken in the same sequence, the figures for “SAGGSAGGSAGGITLEEILKLIKDQPPGETRMIRLPGNGYTIQIYYEDNQLEIDIEPVKDSAGGSAGGSAGG [r7_448_TrROS]” were 1.06 ± 0.029 kcal/mol, 1.57 ± 0.032 kcal/mol and 1.41 ± 0.078 kcal/mol.
